Data: patent CN113621064A (FUZHOU MAIXIN BIOTECHNOLOGY DEV CO LTD, dated 2021)

Target: T1, CD117蛋白 (c-kit, 干细胞因子受体) (human, UniProt P10721 26-976)
T1 construct: whole, on cells; Endogenous antigen in tissue sections (immunohistochemistry); The abstract names it as human; also called 人CD117抗原
Test: immunohistochemistry on a tissue array of 28 gastrointestinal stromal tumours

T1 sequence (P10721 26-976): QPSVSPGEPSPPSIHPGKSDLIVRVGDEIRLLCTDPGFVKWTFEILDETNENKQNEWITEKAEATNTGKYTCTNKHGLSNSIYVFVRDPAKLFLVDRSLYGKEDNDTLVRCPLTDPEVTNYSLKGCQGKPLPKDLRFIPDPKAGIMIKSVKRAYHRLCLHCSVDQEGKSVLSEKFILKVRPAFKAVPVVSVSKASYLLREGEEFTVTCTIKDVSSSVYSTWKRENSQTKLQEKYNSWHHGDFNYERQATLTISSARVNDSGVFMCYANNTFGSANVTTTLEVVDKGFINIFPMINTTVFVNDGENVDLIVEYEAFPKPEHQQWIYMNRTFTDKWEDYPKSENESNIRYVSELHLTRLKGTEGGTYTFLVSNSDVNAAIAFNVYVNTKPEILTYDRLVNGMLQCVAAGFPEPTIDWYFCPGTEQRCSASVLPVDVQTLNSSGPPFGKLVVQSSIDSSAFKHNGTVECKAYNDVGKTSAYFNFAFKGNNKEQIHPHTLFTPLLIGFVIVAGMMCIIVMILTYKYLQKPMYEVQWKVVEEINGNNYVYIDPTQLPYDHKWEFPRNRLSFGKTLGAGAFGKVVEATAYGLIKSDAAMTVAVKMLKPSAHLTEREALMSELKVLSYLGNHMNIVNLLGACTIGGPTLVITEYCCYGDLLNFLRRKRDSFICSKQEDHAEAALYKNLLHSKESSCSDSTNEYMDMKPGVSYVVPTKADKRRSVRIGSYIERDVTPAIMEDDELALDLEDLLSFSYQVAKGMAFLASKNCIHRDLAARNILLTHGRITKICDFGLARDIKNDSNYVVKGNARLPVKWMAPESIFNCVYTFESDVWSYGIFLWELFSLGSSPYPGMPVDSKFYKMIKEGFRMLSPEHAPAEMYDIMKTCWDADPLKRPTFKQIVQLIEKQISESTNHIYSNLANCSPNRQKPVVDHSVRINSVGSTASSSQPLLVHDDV

B1: 抗CD117蛋白单克隆抗体 (小鼠杂交瘤细胞株33G5分泌, CGMCC NO 21977) (antibody, V domains shown)
VH: EVKLQESGPSLVQPGGSMRLSCVASGFIFSNYWINWVRQSPEMGLEWIAQVKLKSDNYATHYAGSVKGRFTISRDDSKSSVYLQMNNLRPEDTGIYFCLGRLDVWGAGTTVTVSS
VL: DIMLTQSPLSLSVTIGQPASISCKSSQSLLYTDGKTYLNWLLQRPGQSPKLLIYLVSKLDSGVPDRFSGSGSGTDFTLKISRVEAEDLGVYYCLQATHFPQTFGGGTKLEIK
notes: also called CD117(33G5); 33G5分泌的CD117抗体
- binding result: binds
